Test [1] concerns the target T1, human CCL2 (MCP1) - wild type (wt) (human, UniProt P13500 24-99). The test is described as follows: cell-based or functional assay.
In test [2] the target is T1, human CCL2 (MCP1) - wild type (wt). In words: SPR T200, 37 C, antibody captured, 1:1 model. The method, then:
(§1) Antibody clone supernatants were diluted 1:2 in system buffer and were captured for 1 min at 5 μl/min. […] Analyte kinetics were performed at 30 μl/min. As analyte in solution wt human CCL2 or monomeric CCL2 P8A variant CCL2 were used. Analytes were injected at 90 nM highest concentration. The analyte contact time was 3 min and the dissociation time was 10 min. The Biaevaluation software V.3.0 was used according to the instructions of the manufacturer GEHC. A 1:1 binding model with RMAX local was applied to apparently estimate kinetic rates.

The target in test [3] is T2, human CCL2 (MCP1) - P8A variant (human, UniProt P13500 24-99).
T2 construct: In-house point mutant that cannot dimerise; also called monomeric human CCL2; monomeric CCL2
In words: SPR T200, 37 C, antibody captured, 1:1 model. The method, then:
as §1

Test [4] deals with T1, human CCL2 (MCP1) - wild type (wt). In words: SPR, C1 chip, anti-human Fc capture, 25 C, pH 7.4, Langmuir 1:1. The method, then:
The sample and system buffer was PBS-T (10 mM phosphate buffered saline including 0.05% Tween20) pH 7.4. The flow cell was set to 25° C.—and the sample block set to 12° C.—and primed with running buffer twice. The bispecific antibody was captured by injecting a 2 μg/ml solution for 60 see at a flow rate of 10 μl/min. Association was measured by injection of human CCL2 (wt) in various concentrations in solution for 150 see at a flow rate of 30 μl/min starting with 30 nM in 1:10 dilutions. The dissociation phase was monitored for up to 1200 sec and triggered by switching from the sample solution to running buffer. […] Bulk refractive index differences were corrected by subtracting the response obtained from a goat anti human IgG Fc surface. Blank injections are also subtracted (=double referencing). For calculation of kinetic parameters, the Langmuir 1:1 model was used.
In general terms: SPR reads the build-up and loss of mass on a sensor chip optically.

For test [5] the target is unchanged. The test is described as follows: cell-based or functional assay. This is another data set of the same source.

As a reminder, the Kd is a measure of binding affinity in units of concentration. Read a high Kd as lower affinity.

B1: 1A4 (antibody, V domains shown)
VH: QSLEESGGDLVKPGASLTLTCTASELDFYWICWVRQAPGKGLEWIACIGAGSSGSTYYASWAKGRFTVSKTSSTTVTLQMTSLTAADTATYFCARTGTEFTYYSLWGPGTLVTVSS
VL: ALVMTQTPSSVSAAVGGTVTINCQASQSVYNNNMAWYQQKPGQPPKLLIYTASSLASGVPSHFRGSGSGTQFTLTISDLESDDAATYYCAGYKSYSNDEYGFGGGTEVVVK
notes: which format stood in each assay is not always stated; also called CCL2-0008
Regarding B1, in test [1], the “THP1 chemotaxis [fold change compared to IgG control]” value was 4.5 fold. Besides, in test [2], the dissociation constant Kd was 0.073 nM and the “T1/2” value was determined as 1.67 h. Also, in test [3], the equilibrium dissociation constant (Kd) came to 0.059 nM and the “T1/2” value was 2.9 h.

B2: murine 11K2 (antibody, V domains shown)
VH: EVQLQQSGAELVKAGASVKLSCPASGLNIKDTYMHWVKQRPEQGLEWIGRIDPANGNTKFDPKFQGKATITADTSSNTAYLQLSSLTSEDTAVYYCARGVFGFFDYWGQGTTLTVSS
VL: DIQMTQSSSSFSVSLGDRVTITCKATEDIYNRLAWYQQKPGSAPRLLISGATSLETGVPSRFSGSGSGKDYTLSITSLQTEDVATYYCQQFWSAPYTFGGGTKLEIK
notes: also called 11K2m; X-0048
Consider B2, for which the “THP1 chemotaxis [fold change compared to IgG control]” value in test [1] was determined as 6.9 fold. In test [2], the dissociation constant (Kd) was determined as 0.35 nM and the “T1/2” value was 0.317 h. In test [3], the Kd was found to be 0.011 nM and the “T1/2” value turned out to be 8.63 h.

B3: 2F6 (antibody, IgG1, V domains shown)
VH: QSLEESGGGLVQPEGSLTLTCTASGFSFNNNYYMCWVRQAPGKGLEWIGCISTDDSNTHYASWAQGRFTISKASSTALTLQVAGLTVADMATYFCARDAHFTSYGYGFDLWGPGTLVTVSS
VL: DIVMTQTPASVSAAVGGTVSINCRASEDIENLVAWYQQKPGQPPKLLIYQASKLASGVPSRFKGSGSGAEFTLTIGDLESADAATYYCQGDYGSGWIMYSFGGGTDLVVK
notes: also called CCL2-0014
As for B3, the “THP1 chemotaxis [fold change compared to IgG control]” value in test [1] turned out to be 6.7 fold. Besides, the Kd in test [2] amounted to 0.059 nM; in test [3], 0.091 nM. Also, the “T1/2” value in test [2] worked out at 0.867 h; in test [3], 0.783 h.

B4: 11K2//1G9-PGLALA (bispecific antibody, V domains shown)
VH 1: QVQLVQSGAEVKKPGSSVKVSCKASGLTISDTYMHWVRQAPGQGLEWMGRIDPANGNTKFDPKFQGRVTITADTSTSTAYMELSSLRSEDTAVYYCARGVFGFFDYWGQGTTVTVSS
VL 1: DIQMTQSPSSLSASVGDRVTITCKATEDIYNRLAWYQQKPGKAPKLLISGATSLETGVPSRFSGSGSGTDYTLTISSLQPEDFATYYCQQFWSAPYTFGGGTKVEIK
VH 2: QSLEESGGDLVKPGASLTLTCKASGIDFSLYSYMCWVRQAPGKGLEWIACVDAGASGSTYYASWAKGRFTISKTSSTTVTLQMTSLTAADTATYFCARGILYYTWPYPAGAIDAFDSWGPGTLVTVSS
VL 2: AYDMTQTPASVSEPVGGTVTIKCQASESISNYLSWYQQKPGQPPKLLIYKASTLASGVPSRFKGSGSGTEYTVTISGVQSDDAATYYCQQSYSSSNVFNTFGGGTEVVVK
notes: CrossMab, IgG1 with L234A, L235A, P329G, knobs-into-holes; crossed arm humanized 11K2, non-crossed arm 1G9; also called CCL2-0043; P1AA3463
With B4, the binding result in test [4] is reported as “binds”.

B5: CKLO2-IgG1 (bispecific antibody)
heavy 1: not shown
heavy 2: not shown
light 1: QVQLVQSGAEVKKPGSSVKVSCKASGLTISHTYMHWVRQAPGQGLEWMGRIDPDNHNTKFDPKFQGRVTITADTSTSTAYMELSSLRSEDTAVYYCARGVFGFFEHWGQGTTVTVSSASVAAPSVFIFPPSDEQLKSGTASVVCLLNNFYPREAKVQWKVDNALQSGNSQESVTEQDSKDSTYSLSSTLTLSKADYEKHKVYACEVTHQGLSSPVTKSFNRGEC
light 2: EIVLTQSPATLSLSPGERATLSCRASQHVSDAYLAWYQQKPGQAPRLLIYDASDRAEGVPARFSGSGSGTDFTLTISSLEPEDFAVYYCHQYIHLHSFTFGQGTKVEIKRTVAAPSVFIFPPSDRKLKSGTASVVCLLNNFYPREAKVQWKVDNALQSGNSQESVTEQDSKDSTYSLSSTLTLSKADYEKHKVYACEVTHQGLSSPVTKSFNRGEC
In the case of B5, in test [5], the “IC50, inhibition of THP-1 migration (chemotaxis assay)” value worked out at 0.2 µg/mL.

Values taken from US20240360208A1 (Hoffmann-La Roche, published 2024).
